Data taken from paper PMC9621272.

How the values were obtained:
Trypsin [1] = molecular target: Trypsin (UniProt P00760)
Trypsin [2] = molecular target: Trypsin (UniProt P00760); remark: listed apart in the source

Sequence of UniProt P00760 (P00760 18-246): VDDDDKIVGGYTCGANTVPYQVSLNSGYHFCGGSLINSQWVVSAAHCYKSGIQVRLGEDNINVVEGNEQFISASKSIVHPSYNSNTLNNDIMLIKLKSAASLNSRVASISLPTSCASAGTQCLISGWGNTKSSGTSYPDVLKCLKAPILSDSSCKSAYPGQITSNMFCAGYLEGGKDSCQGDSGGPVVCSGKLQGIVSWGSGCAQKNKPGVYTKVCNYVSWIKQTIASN

antitrypsin activity (%) of the eluate from Trypsin-Sepharose (Trypsin [1]): 97%
antitrypsin activity (%), substrate BApNa 1.25 mM, TTI 0.7 mg/mL after the gastric phase of simulated digestion (TTI remained intact) (Trypsin [2]): 96.6%
antitrypsin activity (%), substrate BApNa 1.25 mM, TTI intact 0.7 mg/mL, no digestion (Trypsin [2]): 96.3%
Substance: trypsin inhibitor isolated from tamarind seeds (natural protein)
